Measurements reported in US20230374088A1.

Target: mNeonGreen-tagged full length Gli2 (human) (UniProt P10070)
Assay: cell-based or functional assay

amount of Gli2 in the nucleus as a percentage of total Gli expression (mNeonGreen intensity), HeLa cells: < 25%
Substance: mRuby-tagged Kif7-CC (460-600aa) with ER localization signal (from UniProt Q2M1P5 460-600)
